Test results taken from US20070253950A1 (Pfizer, published 2007).

Target: T1, human RAGE-Fc fusion protein (human, UniProt Q15109 23-344)
T1 construct: amino acids 1-344 of human RAGE appended to the Fc domain of human IgG; also called hRAGE-Fc; huRAGE-Fc
Assay: ligand competition ELISA, panel 'Blocks hRAGE-Fc interaction with A-beta'; blocked ligand amyloid beta 1-42 peptide

IC50 (read off the curve): ~0.1 µg/mL
B1: chimeric XT-M4 (antibody, V domains shown)
VH: EVQLVESGGGLVQPGRSLKLSCVVSGFTFNNYWMTWIRQTPGKGLEWVASINNSGDNTYYPDSVKDRFTISRDNAKSTLYLQMNSLRSEDTATYYCTRGGDITTGFDYWGQGVMVTVSS
VL: DIQMTQSPSSMSVSLGDTITITCRASQDVGIYVNWFQQKPGKSPRRMIYRATNLADGVPSRFSGSRSGSIYSLTISSLESEDVADYHCLEFDEHPLTFGSGTKVEIK
modifications: N-linked oligosaccharide at Asn52 (CDR2) on part of the heavy chains
notes: rat XT-M4 variable regions fused to human kappa light chain and human IgG1 heavy chain constant regions; L234A and G237A in the human IgG1 Fc region; also called chimeric antibody XT-M4; XT-M4-A-1
